Publication PMC11428563

Target: VEGF as named in the paper; reagent listed as Human VEGFR2 / KDR Protein, His Tag, Acrobiosystems KDR-H5227 (human) (UniProt P35968)
Assay: BLI
Conditions: BLI (Octet R4, anti-penta-His HIS1K sensors): protein loaded in phosphate buffer pH 7.4 (PlGF 2.5 ug/mL, VEGF 10 ug/mL), aptamers 0-20 uM in 1X Sartorius …

Chain of VEGF as named in the paper; reagent listed as Human VEGFR2 / KDR Protein, His Tag, Acrobiosystems KDR-H5227 (human) (P35968 20-764): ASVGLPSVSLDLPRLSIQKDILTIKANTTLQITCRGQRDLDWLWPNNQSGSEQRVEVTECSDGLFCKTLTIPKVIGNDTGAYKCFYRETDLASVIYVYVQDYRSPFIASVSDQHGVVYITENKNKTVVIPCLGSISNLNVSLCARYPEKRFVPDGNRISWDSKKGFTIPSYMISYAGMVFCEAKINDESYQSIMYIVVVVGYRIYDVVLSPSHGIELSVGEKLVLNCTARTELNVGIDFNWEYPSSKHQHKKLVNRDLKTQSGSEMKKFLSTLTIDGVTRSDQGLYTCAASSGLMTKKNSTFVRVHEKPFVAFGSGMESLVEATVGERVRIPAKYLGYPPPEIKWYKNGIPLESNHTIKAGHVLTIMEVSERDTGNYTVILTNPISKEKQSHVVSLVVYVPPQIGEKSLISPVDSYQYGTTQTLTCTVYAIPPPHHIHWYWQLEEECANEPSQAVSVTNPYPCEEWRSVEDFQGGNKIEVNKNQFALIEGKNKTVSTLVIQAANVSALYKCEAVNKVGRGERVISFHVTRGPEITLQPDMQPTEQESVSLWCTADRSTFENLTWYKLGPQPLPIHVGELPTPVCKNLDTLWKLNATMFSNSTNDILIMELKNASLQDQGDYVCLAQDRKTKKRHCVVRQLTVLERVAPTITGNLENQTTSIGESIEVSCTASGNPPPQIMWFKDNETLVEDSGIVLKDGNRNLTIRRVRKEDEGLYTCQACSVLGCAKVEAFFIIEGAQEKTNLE

Sequence	Kd	Kd (kon 9.164e1 1/Ms, koff 4.362e-7 1/s)
CGAAAACAC [VEGF-Apt2]	0.467 nM	
CGAAGGGAA [VEGF-Apt1]	320000 nM	
GAAAGGCGA [VEGF-Apt3]		6.8 nM
